Sequences and labels used below:
B1: gankyrin-His6x (wild-type gankyrin) (natural protein)
chain: MEGCVSNLMVCNLAYSGKLEELKESILADKSLATRTDQDSRTALHWACSAGHTEIVEFLLQLGVPVNDKDDAGWSPLHIAASAGRDEIVKALLGKGAQVNAVNQNGCTPLHYAASKNRHEIAVMLLEGGANPDAKDHYEATAMHRAAAKGNLKMIHILLYYKASTNIQDTEGNTPLHLACDEERVEEAKLLVSQGASIYIENKEEKTPLQVAKGGLGLILKR
B2: gankyrin-His6x R41A (natural protein)
chain: B1 chain with R41A
B3: gankyrin E182A (natural protein)
chain: B1 chain with E182A
B4: gankyrin-His6x D39A/D71A (natural protein)
chain: B1 chain with D39A, D71A
B5: gankyrin-His6x R41A/K116A (natural protein)
chain: B1 chain with R41A, K116A
B6: gankyrin K116A (natural protein)
chain: B1 chain with K116A
B7: Grafted FtsH-S6 ATPase, His6x-tagged (wild-type) (other)
chain: MLTEDQIKTTFADVAGCDEAKEEVAELVEYLREPSRFQKLGGKIPKGVLMVGPPGTGKTLLAKAIAGEAKVPFFTISGSDFVEMFVGVGASRVRDMFEQAKKAAPCIIFIDEIDAVGRQRGAGLGGGHDEREQTLNQMLVEMDGFEGNEGIIVIAATNRPDVLDPALLRPGRFDRQVVVGLPDRRQKRLIFSTITSKMNLSEEVDLEDYVARPDKISGADINSICQESGMLAVRENRYIVLAKDFEKAYKTVIKKDEQEHEFYK

Holding throughout (test): ITC
In experiment [1] the target is FtsH-S6 ATPase R338A/R339A/R342A (ITC protein) (Escherichia coli | , UniProt P43686 337-418, R338A | R339A | R342A).
For experiment [2], the target named is FtsH-S6 ATPase E356A/E357A (ITC protein) (Escherichia coli | , E356A | E357A).
For experiment [3], the target named is FtsH-S6 ATPase K397E (ITC protein) (Escherichia coli | , UniProt P43686 337-418, K397E).
Experiment [4] has as its target B7.
For experiment [5], the target named is FtsH-S6 ATPase R342A (ITC protein) (Escherichia coli | , UniProt P43686 337-418, R342A).
The target of experiment [6] is FtsH-S6 ATPase R338A/R342A (ITC protein) (Escherichia coli | , UniProt P43686 337-418, R338A | R342A).
The target in experiment [7] is B1.
The experiment “gankyrin-His6x R41A” deals with B2.
In the experiment “gankyrin K116A” the target is B6.
The experiment “gankyrin-His6x D39A/D71A” addresses B4.
The target in experiment [8] is B5.
The target in the experiment “gankyrin E182A” is B3.

Residue numbers refer to the chain shown, from its start. In names and notes the source's numbering stands.

One may read the Kd as the constant that tells how readily two partners part at equilibrium. Consider B1, for which the Kd in [1] is 7470 nM; in experiment [2], 71.8 nM; in experiment [3] it was 95.2 nM; in [5], 217 nM; in experiment [6], 2550 nM. Moreover, the dH is -2.2 kcal/mol in [1]; -27.3 kcal/mol in [2]; -25.6 kcal/mol in experiment [3]; -28.7 kcal/mol in experiment [4]; -22 kcal/mol in [5]; -6.1 kcal/mol in experiment [6].
B2 displayed a dH in experiment [4] of -17.1 kcal/mol.
For the molecule B3, the dH in experiment [4] is -28.2 kcal/mol.
On the same count and under the same terms, under B4 stands -25 kcal/mol; under B5, -4.9 kcal/mol; under B6, -24 kcal/mol.
B7: the Kd in [7] came out at 67.3 nM; with gankyrin-His6x R41A it was 313 nM; in the experiment with gankyrin K116A it was 71.3 nM; with gankyrin-His6x D39A/D71A, 93 nM; in [8], 3630 nM; in the experiment with gankyrin E182A it was 141 nM.
